Results as given in article PMC8454987 (PLoS Biology, 2021).

What was measured:
[1] = target: HHV-8 gH/gL ectodomain complex (insect cell, for crystallization) (human herpesvirus 8 (HHV-8)) (UniProt F5HAK9); assay: SEC-MALS
crystal structure = target: the molecule itself; assay: crystal structure
[2] = target: EphA2 LBD (res. 27 to 202), wild type (human, UniProt P29317 27-202); assay: BLI; details: both partners purified
[3] = target: T1, EphA2 ectodomain (res. 27 to 534), wild type (human, UniProt P29317 27-534); assay: BLI; details: both partners purified
T1 construct: also called WT EphA2 ectodomain
T1 sequence (P29317 27-534): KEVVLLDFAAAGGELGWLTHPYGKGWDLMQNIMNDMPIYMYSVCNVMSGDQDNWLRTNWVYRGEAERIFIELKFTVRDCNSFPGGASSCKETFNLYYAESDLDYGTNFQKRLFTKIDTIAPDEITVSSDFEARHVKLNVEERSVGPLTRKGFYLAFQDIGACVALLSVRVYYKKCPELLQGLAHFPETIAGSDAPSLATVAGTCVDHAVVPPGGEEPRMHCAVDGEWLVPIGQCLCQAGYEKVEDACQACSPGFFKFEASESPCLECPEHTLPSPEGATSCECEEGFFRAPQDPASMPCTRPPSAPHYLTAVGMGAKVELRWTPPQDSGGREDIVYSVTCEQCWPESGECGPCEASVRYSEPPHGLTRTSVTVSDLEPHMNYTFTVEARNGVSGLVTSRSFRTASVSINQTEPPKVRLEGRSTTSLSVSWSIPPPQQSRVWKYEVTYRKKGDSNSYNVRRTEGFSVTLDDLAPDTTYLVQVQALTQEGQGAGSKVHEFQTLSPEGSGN

HHV-8 gH/gL ectodomain complex (insect cell, for crystallization) (human herpesvirus 8 (HHV-8)), sequence (F5HAK9 whole entry, looked up, the tested form may be a part, one chain of several): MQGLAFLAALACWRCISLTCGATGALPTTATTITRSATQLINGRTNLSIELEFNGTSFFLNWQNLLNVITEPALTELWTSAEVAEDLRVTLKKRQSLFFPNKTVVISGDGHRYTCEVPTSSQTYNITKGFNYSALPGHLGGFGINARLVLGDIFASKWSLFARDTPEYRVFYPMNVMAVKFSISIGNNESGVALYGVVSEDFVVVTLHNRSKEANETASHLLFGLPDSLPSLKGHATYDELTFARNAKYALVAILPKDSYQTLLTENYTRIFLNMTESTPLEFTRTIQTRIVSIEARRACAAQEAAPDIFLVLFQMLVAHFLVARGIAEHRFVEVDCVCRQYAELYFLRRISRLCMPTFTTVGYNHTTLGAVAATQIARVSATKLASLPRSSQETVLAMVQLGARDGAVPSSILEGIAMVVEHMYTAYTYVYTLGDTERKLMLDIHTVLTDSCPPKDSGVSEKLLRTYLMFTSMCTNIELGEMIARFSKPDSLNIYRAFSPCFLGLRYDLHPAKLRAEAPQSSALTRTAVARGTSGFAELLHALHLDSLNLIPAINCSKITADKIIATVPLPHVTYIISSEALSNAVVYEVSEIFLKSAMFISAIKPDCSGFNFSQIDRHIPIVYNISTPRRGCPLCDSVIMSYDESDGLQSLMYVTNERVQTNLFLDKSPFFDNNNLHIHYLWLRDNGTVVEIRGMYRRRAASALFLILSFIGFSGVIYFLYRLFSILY

EphA2 ectodomain (res. 27 to 534), wild type (from UniProt P29317 27-534) (domain or fragment)
stoichiometry N [1]: 1

EphA2 ligand-binding domain (residues 23 to 202), insect cell (from UniProt P29317 23-202) (domain or fragment)
stoichiometry N [1]: 1

B1: EphA2 ligand-binding domain (residues 23 to 202), insect cell (domain or fragment, human, UniProt P29317 23-202, looked up)
chain: AAQGKEVVLLDFAAAGGELGWLTHPYGKGWDLMQNIMNDMPIYMYSVCNVMSGDQDNWLRTNWVYRGEAERIFIELKFTVRDCNSFPGGASSCKETFNLYYAESDLDYGTNFQKRLFTKIDTIAPDEITVSSDFEARHVKLNVEERSVGPLTRKGFYLAFQDIGACVALLSVRVYYKKCP
notes: also called EphA2 LBD; LBD
binding result (crystal structure): binds

B2: HHV-8 gH^his/gL^st wild type (mammalian cells) (complex)
chain 1: LPTTATTITRSATQLINGRTNLSIELEFNGTSFFLNWQNLLNVITEPALTELWTSAEVAEDLRVTLKKRQSLFFPNKTVVISGDGHRYTCEVPTSSQTYNITKGFNYSALPGHLGGFGINARLVLGDIFASKWSLFARDTPEYRVFYPMNVMAVKFSISIGNNESGVALYGVVSEDFVVVTLHNRSKEANETASHLLFGLPDSLPSLKGHATYDELTFARNAKYALVAILPKDSYQTLLTENYTRIFLNMTESTPLEFTRTIQTRIVSIEARRACAAQEAAPDIFLVLFQMLVAHFLVARGIAEHRFVEVDCVCRQYAELYFLRRISRLCMPTFTTVGYNHTTLGAVAATQIARVSATKLASLPRSSQETVLAMVQLGARDGAVPSSILEGIAMVVEHMYTAYTYVYTLGDTERKLMLDIHTVLTDSCPPKDSGVSEKLLRTYLMFTSMCTNIELGEMIARFSKPDSLNIYRAFSPCFLGLRYDLHPAKLRAEAPQSSALTRTAVARGTSGFAELLHALHLDSLNLIPAINCSKITADKIIATVPLPHVTYIISSEALSNAVVYEVSEIFLKSAMFISAIKPDCSGFNFSQIDRHIPIVYNISTPRRGCPLCDSVIMSYDESDGLQSLMYVTNERVQTNLFLDKSPFFDNNNLHIHYLWLRDNGTVVEIRGMYRRRAAS
chain 2: YVALPCCAIQASAASTLPLFFAVHSIHFADPNHCNGVCIAKLRSKTGDITVETCVNGFNLRSFLVAVVRRLGSWASQENLRLLWYLQRSLTAYTVGFNATTADSSIHNVNIIIISVGKAMNRTGSVSGSQTRAKSSSRRAHAGQKGK
Kd [2]: < 1 nM
Kd [3]: < 1 nM
